“Also recorded” adds a separate entry of the source.
Tested on: human mammary epithelial cells
Assay: Human mammary organoids stained for K8/K14, confocal microscopy
Assay type: cell-based
Details: Day 17 organoids; 50 ng/mL NRG3, 100 ng/mL AMH, 50 ng/mL GM-CSF
Procedure: Organoids were recovered from Matrigel by incubating in Corning Cell Recovery Solution for 1 hour with rocking on ice. Organoids were then fixed in 4% paraformaldehyde (PFA) at room temperature for 1 hour and stored in PBS at 4° C. After PFA fixation, antigen retrieval was performed by boiling the organoids in sodium citrate buffer for 20 minutes at 96° C. Organoids were permeabilized in a 0.5% Triton-X-100 solution in PBS overnight at room temperature. Samples were blocked by incubating overnight in a solution of 5% goat serum.
Following fixation and permeabilization, the organoids were incubated sequentially in primary antibody and secondary antibody solutions (as summarized in the table below) overnight at room temperature. Samples were counterstained in a 2 μg/ml DAPI solution for 20 minutes and dehydrated through stepwise incubations in solutions with increasing methanol concentrations (50%, 80%, then 100% methanol). Organoids were embedded in a solution of 2:1 Benzyl Benzoate-Benzyl alcohol (BABB), transferred to Ibidi glass bottom chamber slides and imaged using a Leica SP8 confocal laser scanning microscope. […]
The effects of modulating signaling through BMP were analyzed across multiple experiments in terms of total cell count among formed organoids (FIG. 9A) and the lineage balance of the cells among formed organoids (FIG. 9B). […]

B1: anti mullerian hormone (protein, UniProt P03971 452-560, looked up)
Muellerian-inhibiting factor: SAGATAADGPCALRELSVDLRAERSVLIPETYQANNCQGVCGWPQSDRNPRYGNHVVLLLKMQVRGAALARPPCCVPTAYAGKLLISLSEERISAHHVPNMVATECGCR
  lineage restriction of organoids formed (K8/K14 staining): bias the culture of mammary epithelial cells to form luminal-restricted organoids; also recorded: Luminal-restricted organoids were formed
